Data as given in patent US20240124575A1 (SIMCERE ZAIMING PHARMACEUTICAL, published 2024).
Blank lines part the entries; values can stand above or below the binder they belong to.

Experiments:
[1] = target: T1, human CD33-His (extracellular domain Asp 18-His 259) (human, UniProt P20138 18-259); experiment: ELISA, antigen coated
T1 construct: range 18-259; bought protein; also called hCD33-his; human CD33 protein; not shown: His tag
Experimental: (§1) In order to assay the binding activity of VHH-Fc to human CD33 protein, a human CD33-his protein (purchased from ACROBiosystems, Cat. No. CD3-H5226) was diluted with PBS to make a final concentration of 2 μg/mL, and then added into a 96-well ELISA plate at 100 μL/well. The plate was sealed with a plastic film and incubated at 4° C. overnight, washed twice with PBS the next day, and a blocking solution [PBS+2% (w/w) BSA] was added for blocking at room temperature for 2 h. The blocking solution was discarded, and VHH-Fc antibody or negative control antibody serially diluted from 100 nM was added at 50 μL/well. After incubation at 37° C. for 2 h, the plate was washed 3 times with PBS. A secondary antibody labeled with HRP (horseradish peroxidase) (purchased from Sigma, Cat. No. A0170) was added. After incubation for 1 h at 37° C., the plate was washed 5 times with PBS. A TMB substrate was added at 50 μL/well. After incubation at room temperature for 10 min, a stop solution (1.0 N HCl) was added at 50 μL/well. The OD450 nm values were read on an ELISA plate reader (Multimode Plate Reader, EnSight, purchased from Perkin Elmer). The assay results for the binding of the VHH-Fc to hCD33-his by ELISA are shown in FIGS. 7A and 7B and Tables 11 and 12. […] The IgG control was hIgG1, and the data in the table are OD450 nm values.

[2] = target: T2, monkey CD33-His protein (monkey); experiment: ELISA on coated monkey CD33-his
T2 construct: also called monkey CD33 protein

[3] = target: T1, human CD33-His (extracellular domain …); experiment: competitive ELISA vs coated C33B904 2ug/mL; soluble 25ug/ml
Experimental: VHH antibodies and control antibodies with known epitopes were subjected to epitope classification with competitive ELISA. ELISA plates were coated with 2 μg/mL antibodies according to the method in Example 5.1; the human CD33-his protein was subjected to a gradient dilution from 30 μg/mL, and EC80 values (Tables 26-27) were calculated. ELISA plates were coated with 2 μg/mL antibodies; after 25 µg/mL of antibodies to be tested were added, a human CD33-his protein having an EC80 concentration corresponding to each of the antibodies to be tested was then added for incubation for 2 h. The plates were washed 5 times with PBS, then HRP-labeled anti-His antibodies (purchased from GenScript, Cat. No. A00612) were added for incubation for 1 h, and the plates were washed 5 times. A TMB substrate was added at 50 μL/well and incubated at room temperature for 10 min, then a stop solution (1.0 M HCl) was added at 50 μL/well. OD_{450 nm} values were read using an ELISA plate reader (Insight, purchased from PerkinElmer), and the competition rate between the antibodies was calculated according to the OD_{450 nm} values using a formula. The results are shown in FIGS. 12A-12B, the higher the value of the competition rate, the closer the epitopes to which two antibodies bind.

[4] = target: T1, human CD33-His (extracellular domain …); experiment: competitive ELISA vs coated S006-NB146-69 3ug/mL; soluble 25ug/ml
[5] = target: T1, human CD33-His (extracellular domain …); experiment: competitive ELISA vs coated S006-NB146-139 3ug/mL; soluble 25ug/ml
[6] = target: T3, human CD33-his protein (human, UniProt P20138 18-259); experiment: competition ELISA, coated human CD33-his, vs Biotin-C33B904 at EC80; antibody 3.91 nM
T3 construct: range 18-259; bought protein; also called hCD33-his; recombinant human CD33-his; not shown: His tag
T3 sequence (P20138 18-259 limits assumed): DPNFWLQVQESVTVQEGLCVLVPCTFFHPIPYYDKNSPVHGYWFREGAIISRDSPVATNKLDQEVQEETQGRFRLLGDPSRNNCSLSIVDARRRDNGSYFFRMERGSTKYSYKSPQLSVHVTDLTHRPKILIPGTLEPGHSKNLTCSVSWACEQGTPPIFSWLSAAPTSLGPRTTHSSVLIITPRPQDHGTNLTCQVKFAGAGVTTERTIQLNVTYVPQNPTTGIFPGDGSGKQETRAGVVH
Experimental: as §1, with “The” for “In order to assay the binding activity of VHH-Fc to human CD33 protein, a human CD33-his protein (purchased from ACROBiosystems, Cat. No. CD3-H5226) was diluted with PBS to make a final concentration of 2 μg/mL, and then added into a 96-well ELISA plate at 100 μL/well. The”
ELISA plates were coated with 2 μg/mL human CD33-his protein according to the method in Example 5.1; the Biotin-C331B904 antibody was subjected to a gradient dilution from 15 μg/mL, and EC80 values (0.18 μg/mL) were calculated. […] OD_{450 nm} values were read using an ELISA plate reader (Insight, purchased from PerkinElmer). […]

[7] = target: T3, human CD33-his protein; experiment: competition ELISA, coated human CD33-his, vs Biotin-C33B904 at EC80; antibody 31.25 nM
Experimental: ELISA plates were coated with 2 μg/mL human CD33-his protein according to the method in Example 5.1; the Biotin-C331B904 antibody was subjected to a gradient dilution from 15 μg/mL, and EC80 values (0.18 μg/mL) were calculated. ELISA plates were coated with 2 μg/mL human CD33-his protein; starting from 40 μg/mL, the VHH antibodies to be tested were diluted in a 1:2 dilution ratio to obtain seven concentrations and added to the ELISA plates, and then Biotin-C331904 antibodies with the EC80 concentrations were added for incubation for 2 h. The plates were washed 5 times with PBS and then […] (purchased from Sigma, Cat. No. S2438) were added for incubation for 1 h, and the plates were washed 5 times. A TMB substrate was added at 50 μL/well and incubated at room temperature for 10 min, then a stop solution (1.0 M HCl) was added at 50 μL/well. OD_{450 nm} values were read using an ELISA plate reader (Insight, purchased from PerkinElmer). Then, analysis was performed by software (GraphPad Prism8), and data were fitted for curve plotting. The results are shown in FIGS. 13A-13B and Tables 28 and 29.

T1 sequence (P20138 18-259 limits assumed): as above

OD450 at 0.0001 nM [1]: 0.04 OD450
OD450 at 0.001 nM [1]: 0.06 OD450
OD450 at 0.01 nM [1]: 0.08 OD450
OD450 at 0.1 nM [1]: 0.28 OD450
OD450 at 1 nM [1]: 1.39 OD450
OD450 at 10 nM [1]: 2.6 OD450
OD450 at 100 nM [1]: 2.96 OD450
EC50 (read off the curve) [2]: ~0.3 nM
inhibition rate [3]: 88%
inhibition rate [4]: 99%
inhibition rate [5]: 101%
B1: C33B904 hIgG1 (antibody, V domains shown)
VH: EVQLVESGGGLVQPGRSLRLSCAASGFTFDDYAMHWVRQAPGKGLEWVSGIGWSGGSIVYADSVKGRFTISRDNAKNSLYLQMNSLRAEDTALYYCAKDSPYGDFFDYWGQGTLVTVSS
VL: DIVMTQSPDSLAVSLGERATINCKSSQTVFYSSNNKNYLAWYQQKPGQPPKLLISWASTRKSGVPDRFSGSGSGTDFTLTVSSLQAEDVAVYYCQHYYSTPYTFGQGTKLEIKR
notes: intact human IgG1; variable regions from US20190382481A1; also called C33B3904; C331B904

OD450 (Biotin-C33B904 signal) [6]: 2.25
OD450 (Biotin-C33B904 signal) [7]: 0.66
B2: C33B904 (antibody, human IgG1, kappa, V domains shown)
VH: B1 VH
VL: B1 VL
notes: control antibody, intact human IgG1 form; variable regions from US20190382481A1; also called C33B904 hIgG1; C331B904
